From patent US20190255093A1

Assays:
[1] = molecular target: murine proMyostatin (mouse) (UniProt O08689); assay: method not stated
[2] = molecular target: latent myostatin in serum and muscle of mice (mouse) (UniProt O08689); assay: cell-based or functional assay

| Kd [1] [nM] | latent myostatin signal in muscle (fluorescent western blot, normalized to total protein, compared to WT mice) [2] [fold] | Substance |
| --- | --- | --- |
| 8.35 |  | SRK-015 (antibody) |
| 2.57 |  | muSRK-015 (antibody) |
| 2.88 | 3 | muSRK-015P (antibody) |
